{"source": "patent US20110002945A1", "about": "“Use of immunoglobulin heavy and light chains or fragments thereof to bind to aggregated amyloidogenic proteins” (published 2011)", "key": {"fibrillar Aβ1-40 peptide": {"biological_target": "fibrillar Aβ1-40 peptide (Homo sapiens (Human), UniProt P05067)", "assay": "EuLISA on plate-immobilized fibrils", "experimental": "High binding activated microtiter plate wells were coated with 400 ng of fibrillar Aβ1-40 peptide, which was prepared by aggregation in 10 mM PBS of Aβ1-40 peptide, previously disaggregated by the trifluoro acetic acid/hexafluoroisopropanol procedure [Adekar et al., J. Biol. Chem. 285, 1066-1074 (2010)]. After blocking with 1% bovine serum albumin (BSA), F1 was serially diluted in 10 mM PBS/1% BSA and applied in 100 μl aliquots to coated wells. After incubation for 1 hr, wells were washed, and incubated with biotinylated goat anti-human IgG as a secondary antibody for 1 hr. Thereafter bound HC F1 was determined with a Eu³⁺-streptavidine conjugate followed by the release enhancement reagent (EuLISA) and measuring the amount of Eu³⁺ by time-resolved fluorescence (Victor 1420 multilabel counter) against a standard curve established with known concentrations of Eu³⁺."}, "IAPP fibrils": {"biological_target": "T1, IAPP fibrils (Homo sapiens (Human), UniProt P10997)", "T1 peptide": "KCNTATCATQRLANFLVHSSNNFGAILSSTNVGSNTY", "assay": "EuLISA on plate-immobilized fibrils (column heads of c9 and c10 seem swapped)"}, "[1]": {"biological_target": "dityrosine cross-linked Aβ preparation (CAPS) (Homo sapiens (Human), UniProt P05067, dityrosine cross-linked)", "assay": "EuLISA on plate-immobilized CAPS"}}}
{"binder": "antibody heavy chain F1 (other) heavy: AMDWTWSILFLVAAATGAHSQVQLVQSGAEVKKPGASVKVSCKASGYTFSSNGIIWVRQAPGQGLEWLGWISGYNGKTRYAQKVQGRVTITTDTSTSTAYMELRSLRSDDTAVYYCAREKTMVRGAISGYSDYWGQGTLVTVSSASTKGPSVFPLAPSSKSTSGGTAALGCLVKDYFPEPVTVSWNSGALTSGVHTFPAVLQSSGLYSLSSVVTVPSSSLGTQTYICNVNHKPSNTKVDKKRVEPKSCDKTHTCPPCPAPELLGGPSVFLFPPKPKDTLMISRTPEVTCVVVDVSHEDPEVKFNWYVDGVEVHNAKTKPREEQYNSTYRVVSVLTVLDHQDWLNGKEYKCKVSNKALPAPIEKTISKAKGQPREPQVYTLPPSREELMTKNQVSLTCLVKGFYPSDIAVEWESNGQPENNYKTTPPVLDSDGSFFLYSKLTVDKSRWQQGNVFSCSVMHEALHNHYTQKSLSLSPGK", "values": [{"measurement": "EC50", "setting": "fibrillar Aβ1-40 peptide", "value": 23, "unit": "nM"}, {"measurement": "EC50", "setting": "IAPP fibrils", "value": 40, "unit": "nM"}, {"measurement": "EC50", "setting": "[1]", "value": 28, "unit": "nM"}]}
